From US11278600B2, “Human alpha-galactosidase variants” (Codexis, Inc., priority 2014, dated 2022) come the findings set out here.

Assay type in all cases: biochemical
Data set [1] is described as follows: HTP-analysis of supernatants pretreated with acid (MUGal hydrolysis). As to conditions: activity of the variant/activity of Rd3BB (SEQ ID NO: 13); challenge at pH 3.7. In outline:
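Supernatants from INVSc1 yeast secreting GLA variants were challenged at 37° C. for 1-3 h in McIlvaine buffer at pH 3.3-4.3. Residual activity was then measured on 4 mM MUGal substrate stock at pH 4.8 with citrate buffer pH 4.3, over 30-180 min at 37° C. Reactions were quenched with sodium carbonate and read by fluorescence (Ex 355/Em 448 nm).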

Data set [2] in a line: HTP-analysis of yeast culture supernatants, no challenge (MUGal hydrolysis). The settings on record: activity of the variant/activity of Rd3BB (SEQ ID NO: 13). In outline: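 Activity read as 4-methylumbelliferyl α-D-galactopyranoside hydrolysis: fluorescence (355/448 nm) after sodium carbonate stop, following 30-180 min at 37° C with 2 mM MUGal stock at pH 4.6–4.8. Enzyme source is unchallenged culture supernatant of INVSc1 yeast expressing GLA variants, grown 66-84 h at 30° C.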

Data set [3] is described as follows: HTP-analysis of supernatants pretreated with base (MUGal hydrolysis). As to conditions: activity of the variant/activity of Rd3BB (SEQ ID NO: 13); challenge at pH 9.7. A digest of the protocol: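 GLA variants secreted from yeast INVSc1; culture supernatants pre-incubated with McIlvaine buffer pH 7.0–8.2 or 200 mM bicarbonate pH 9.1–9.7 at 37° C. for 1–18 h. Residual activity: MUGal (4 mM stock) hydrolysis at pH 4.3–4.8, 37° C., 30–180 min, carbonate quench; fluorescence Ex 355/Em 448 nm.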

Where a chain is given by its changes, count along the chain named.

B1: 554 (protein)
chain: LDNGLARTPTMGWLHWERFMCNLDCQEEPDSCISEKLFMEMAERMVSEGWKDAGYEYLCIDDCWMAPQRDSEGRLQADPQRFPHGIRQLANHVHSKGLKLGIYADVGNKTCAGFPGSFGYYDIDAQTFADWGVDLLKFDGCYCDSLENLADGYKHMSLALNRTGRSIVYSCEWPLYMWPFQKPNYTEIRQYCNHWRNFADIDDSWASIKSILDWTSRNQERIVDVAGPGGWNDPDMLVIGNFGLSWDQQVTQMALWAIMAAPLFMSNDLRHISPQAKALLQDKDVIAINQDPLGKQGYQLRKGDNFEVWERPLSGDAWAVAIINRQEIGGPRSYTIPVASLGKGVGCNPACFITQLLPVKRQLGFYNWTSRLKSHINPTGTVLLQLENTMQMSLKDLL
modifications: Synthetic Polypeptide sequence of Variant No. 554 of mature Human GLA
On to B1, for which the “Relative Activity of GLA Variants After Challenge at pH 3.7” value (shortened to “Relative Activity … at pH 3.7”) in data set [1] is given as “+ (+ = 1.5 to 5 relative activity over Rd3BB (SEQ ID NO: 13))”. Besides, the “Relative Activity of GLA Variants After No Challenge (NC)” value in data set [2] was “+ (+ = 1.5 to 5 relative activity over Rd3BB (SEQ ID NO: 13))”. Moreover, the “Relative Activity of GLA Variants After Challenge at pH 9.7” value (shortened to “Relative Activity … at pH 9.7”) in data set [3] is “++ (++ = >5 to 10 relative activity over Rd3BB (SEQ ID NO: 13))”.

B2: 562 (protein)
chain: B1 chain with G346A, W368N
modifications: Synthetic Polypeptide sequence of Variant No. 562 of mature Human GLA
Regarding B2, the “Relative Activity … at pH 3.7” value in data set [1] is recorded as “+ (+ = 1.5 to 5 relative activity over Rd3BB (SEQ ID NO: 13))”. In addition, the “Relative Activity of GLA Variants After No Challenge (NC)” value in data set [2] is listed as “+ (+ = 1.5 to 5 relative activity over Rd3BB (SEQ ID NO: 13))”. Also, the “Relative Activity … at pH 9.7” value in data set [3] was “++ (++ = >5 to 10 relative activity over Rd3BB (SEQ ID NO: 13))”.

B3: 566 (protein)
chain: B1 chain with G346A, N348M
modifications: Synthetic Polypeptide sequence of Variant No. 566 of mature Human GLA
Consider B3, for which the “Relative Activity … at pH 3.7” value in data set [1] is “+ (+ = 1.5 to 5 relative activity over Rd3BB (SEQ ID NO: 13))”. For the same molecule, the “Relative Activity of GLA Variants After No Challenge (NC)” value in data set [2] is recorded as “+ (+ = 1.5 to 5 relative activity over Rd3BB (SEQ ID NO: 13))”. For the same molecule, the “Relative Activity … at pH 9.7” value in data set [3] was “++ (++ = >5 to 10 relative activity over Rd3BB (SEQ ID NO: 13))”.

B4: 565 (protein)
chain: B1 chain with G346A, N348E
modifications: Synthetic Polypeptide sequence of Variant No. 565 of mature Human GLA
Turning to B4, the “Relative Activity … at pH 3.7” value in data set [1] is recorded as “+ (+ = 1.5 to 5 relative activity over Rd3BB (SEQ ID NO: 13))”. Moreover, in data set [2], the “Relative Activity of GLA Variants After No Challenge (NC)” value is “+ (+ = 1.5 to 5 relative activity over Rd3BB (SEQ ID NO: 13))”. Besides, the “Relative Activity … at pH 9.7” value in data set [3] was “++ (++ = >5 to 10 relative activity over Rd3BB (SEQ ID NO: 13))”.

B5: 568 (protein)
chain: B1 chain with G346A, N348R
modifications: Synthetic Polypeptide sequence of Variant No. 568 of mature Human GLA
Turning to B5, the “Relative Activity … at pH 3.7” value in data set [1] is given as “+ (+ = 1.5 to 5 relative activity over Rd3BB (SEQ ID NO: 13))”. Further, in data set [2], the “Relative Activity of GLA Variants After No Challenge (NC)” value is given as “+ (+ = 1.5 to 5 relative activity over Rd3BB (SEQ ID NO: 13))”. Also, the “Relative Activity … at pH 9.7” value in data set [3] is reported as “++ (++ = >5 to 10 relative activity over Rd3BB (SEQ ID NO: 13))”.

B6: 564 (protein)
chain: B1 chain with G346A, W368V
modifications: Synthetic Polypeptide sequence of Variant No. 564 of mature Human GLA
Consider B6, for which the “Relative Activity … at pH 3.7” value in data set [1] was “+ (+ = 1.5 to 5 relative activity over Rd3BB (SEQ ID NO: 13))”. Moreover, the “Relative Activity of GLA Variants After No Challenge (NC)” value in data set [2] is recorded as “+ (+ = 1.5 to 5 relative activity over Rd3BB (SEQ ID NO: 13))”. Further, in data set [3], the “Relative Activity … at pH 9.7” value is on record as “++ (++ = >5 to 10 relative activity over Rd3BB (SEQ ID NO: 13))”.

B7: 556 (protein)
chain: B1 chain with G344D, G346A
modifications: Synthetic Polypeptide sequence of Variant No. 556 of mature Human GLA
Consider B7, for which the “Relative Activity … at pH 3.7” value in data set [1] is “− (− = <1.5 relative activity to Rd3BB (SEQ ID NO: 13))”. Moreover, the “Relative Activity of GLA Variants After No Challenge (NC)” value in data set [2] is listed as “− (− = <1.5 relative activity to Rd3BB (SEQ ID NO: 13))”. Moreover, in data set [3], the “Relative Activity … at pH 9.7” value was “+ (+ = 1.5 to 5 relative activity over Rd3BB (SEQ ID NO: 13))”.

B8: 560 (protein)
chain: B1 chain with G346A, W368A
modifications: Synthetic Polypeptide sequence of Variant No. 560 of mature Human GLA
Take B8: the “Relative Activity … at pH 3.7” value in data set [1] is “++ (++ = >5 to 10 relative activity over Rd3BB (SEQ ID NO: 13))”. The “Relative Activity of GLA Variants After No Challenge (NC)” value in data set [2] is listed as “+ (+ = 1.5 to 5 relative activity over Rd3BB (SEQ ID NO: 13))”. For the same molecule, the “Relative Activity … at pH 9.7” value in data set [3] is given as “++ (++ = >5 to 10 relative activity over Rd3BB (SEQ ID NO: 13))”.

B9: 561 (protein)
chain: B1 chain with G346A, W368L
modifications: Synthetic Polypeptide sequence of Variant No. 561 of mature Human GLA
Take B9: in data set [1], the “Relative Activity … at pH 3.7” value is on record as “+ (+ = 1.5 to 5 relative activity over Rd3BB (SEQ ID NO: 13))”. Moreover, the “Relative Activity of GLA Variants After No Challenge (NC)” value in data set [2] was “+ (+ = 1.5 to 5 relative activity over Rd3BB (SEQ ID NO: 13))”. Further, the “Relative Activity … at pH 9.7” value in data set [3] was “++ (++ = >5 to 10 relative activity over Rd3BB (SEQ ID NO: 13))”.

B10: 563 (protein)
chain: B1 chain with G346A, W368R
modifications: Synthetic Polypeptide sequence of Variant No. 563 of mature Human GLA
For the molecule B10, in data set [1], the “Relative Activity … at pH 3.7” value is reported as “+ (+ = 1.5 to 5 relative activity over Rd3BB (SEQ ID NO: 13))”. For the same molecule, the “Relative Activity of GLA Variants After No Challenge (NC)” value in data set [2] was “+ (+ = 1.5 to 5 relative activity over Rd3BB (SEQ ID NO: 13))”. In data set [3], the “Relative Activity … at pH 9.7” value is given as “++ (++ = >5 to 10 relative activity over Rd3BB (SEQ ID NO: 13))”.

B11: 567 (protein)
chain: B1 chain with G346A, N348Q
modifications: Synthetic Polypeptide sequence of Variant No. 567 of mature Human GLA
On to B11, for which the “Relative Activity … at pH 3.7” value in data set [1] is “+ (+ = 1.5 to 5 relative activity over Rd3BB (SEQ ID NO: 13))”. Also, the “Relative Activity of GLA Variants After No Challenge (NC)” value in data set [2] is “+ (+ = 1.5 to 5 relative activity over Rd3BB (SEQ ID NO: 13))”. Besides, the “Relative Activity … at pH 9.7” value in data set [3] was “++ (++ = >5 to 10 relative activity over Rd3BB (SEQ ID NO: 13))”.

B12: 558 (protein)
chain: B1 chain with G346A, I353L
modifications: Synthetic Polypeptide sequence of Variant No. 558 of mature Human GLA
In the case of B12, in data set [1], the “Relative Activity … at pH 3.7” value was “− (− = <1.5 relative activity to Rd3BB (SEQ ID NO: 13))”. In addition, the “Relative Activity of GLA Variants After No Challenge (NC)” value in data set [2] is “− (− = <1.5 relative activity to Rd3BB (SEQ ID NO: 13))”. Besides, the “Relative Activity … at pH 9.7” value in data set [3] is “+ (+ = 1.5 to 5 relative activity over Rd3BB (SEQ ID NO: 13))”.

B13: 559 (protein)
chain: B1 chain with G346A, L372W
modifications: Synthetic Polypeptide sequence of Variant No. 559 of mature Human GLA
With B13, the “Relative Activity … at pH 3.7” value in data set [1] is on record as “+ (+ = 1.5 to 5 relative activity over Rd3BB (SEQ ID NO: 13))”. Besides, the “Relative Activity of GLA Variants After No Challenge (NC)” value in data set [2] was “+ (+ = 1.5 to 5 relative activity over Rd3BB (SEQ ID NO: 13))”. Moreover, the “Relative Activity … at pH 9.7” value in data set [3] is “++ (++ = >5 to 10 relative activity over Rd3BB (SEQ ID NO: 13))”.

B14: 555 (protein)
chain: B1 chain with G344A, G346A
modifications: Synthetic Polypeptide sequence of Variant No. 555 of mature Human GLA
As for B14, the “Relative Activity … at pH 3.7” value in data set [1] is reported as “+ (+ = 1.5 to 5 relative activity over Rd3BB (SEQ ID NO: 13))”. Further, the “Relative Activity of GLA Variants After No Challenge (NC)” value in data set [2] is reported as “+ (+ = 1.5 to 5 relative activity over Rd3BB (SEQ ID NO: 13))”. Besides, the “Relative Activity … at pH 9.7” value in data set [3] is recorded as “+ (+ = 1.5 to 5 relative activity over Rd3BB (SEQ ID NO: 13))”.

B15: 557 (protein)
chain: B1 chain with G344S, G346A
modifications: Synthetic Polypeptide sequence of Variant No. 557 of mature Human GLA
As for B15, the “Relative Activity … at pH 3.7” value in data set [1] was “+ (+ = 1.5 to 5 relative activity over Rd3BB (SEQ ID NO: 13))”. In data set [2], the “Relative Activity of GLA Variants After No Challenge (NC)” value is listed as “+ (+ = 1.5 to 5 relative activity over Rd3BB (SEQ ID NO: 13))”. Also, the “Relative Activity … at pH 9.7” value in data set [3] is on record as “++ (++ = >5 to 10 relative activity over Rd3BB (SEQ ID NO: 13))”.
